The source of these data is patent US20120058906A1 (published 2012).

What all share (assay): MSD ECL multi-spot, Fab 2.38 uM, blank 526;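 further: blank spot per well as comparator with Hit at signal to blank ratio of 4 or more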
The target of assay [1] is T1, rHuman ErbB2/Fc Chimera, CF (R&D Systems Cat#1129-ER) (human, UniProt P04626 23-652).
T1 construct: Bought Fc chimera; also called HER2/neu; Fc part of the bought chimera not given

Assay [2] addresses T2, rHuman Notch-1/Fc Chimera, CF (R&D Systems Cat#3647-TK) (human, UniProt P46531 19-526).
T2 construct: Bought Fc chimera; Fc part of the bought chimera not given

Assay [3] addresses T3, rHuman IGF-1 sR (insulin-like growth factor-1 soluble receptor), CF (R&D Systems Cat#391-GR) (human, UniProt P08069 31-932).
T3 construct: Bought soluble receptor; also called IGF-R1

Assay [4] deals with T4, rHuman EGF R/Fc Chimera, CF (R&D Systems Cat#344-ER) (human, UniProt P00533 25-645).
T4 construct: Bought Fc chimera; Fc part of the bought chimera not given

Assay [5] deals with T5, Recombinant Human DLL4 (R&D Systems Cat#1506-D4/CF) (human, UniProt Q9NR61 27-524).
T5 construct: Bought recombinant protein; also called rHuman DLL4; delta-like protein 4

The target of assay [6] is T6, rHuman CD44/Fc Chimera, CF (R&D Systems Cat#3660-CD) (human, UniProt P16070 21-220).
T6 construct: Bought Fc chimera; Fc part of the bought chimera not given

Assay [7] deals with T7, rHuman Erythropoietin R/Fc Chimera, CF (R&D Systems Cat#963-ER) (human, UniProt P19235 25-250).
T7 construct: Bought Fc chimera; also called EPO R/Fc; EPOR; Fc part of the bought chimera not given
T7 sequence: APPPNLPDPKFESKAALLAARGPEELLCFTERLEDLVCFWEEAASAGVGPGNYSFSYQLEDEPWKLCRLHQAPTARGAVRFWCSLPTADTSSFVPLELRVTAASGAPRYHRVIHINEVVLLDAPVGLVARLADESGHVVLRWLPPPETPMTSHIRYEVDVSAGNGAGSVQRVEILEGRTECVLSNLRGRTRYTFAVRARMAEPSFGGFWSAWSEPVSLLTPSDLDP

B1: Fab VH5-51_IGHD5-18*01>3_IGHJ4*01 & V3-4_IGLJ1*01 (Fab, V domains shown)
VH: EVQLVQSGAEVKKPGESLKISCKGSGYSFTSYWIGWVRQMPGKGLEWMGIIYPGDSDTRYSPSFQGQVTISADKSISTAYLQWSSLKASDTAMYYCARRGYSYGYDYFDYWGQGTLVTVSS
VL: QTVVTQEPSFSVSPGGTVTLTCGLSSGSVSTSYYPSWYQQTPGQAPRTLIYSTNTRSSGVPDRFSGSILGNKAALTITGAQADDESDYYCVLYMGSGISYVFGTGTKVTVL
notes: Expressed in E. coli as Fab: heavy chain with CH1 plus Flag and His tags from Plasmid A, lambda light chain constant region from Plasmid E; also called Fab No. 2
For B1, the ECL signal was 594 in assay [1]; 636 in assay [2]; 691 in assay [3]; 681 in assay [4]; 12200 in assay [5]; 666 in assay [6]. In assay [7], this molecule displayed an ECL signal of 834.
